{
  "source": "patent US20240270821A1",
  "about": "“GIP/GLP1/GCG TRI-RECEPTOR AGONISTS AND USES THEREOF” (priority 2023, published 2024)",
  "binders": {"B1": {"name": "Example 464 (peptide)", "chain": "YXQGTXTSDXXILLDKKAQXAFIEYLEEGGPSSGAPPPE", "modifications": "synthetic construct; SITE 2: note = 2-Aminoisobutyric Acid; SITE 6: note = alpha-methyl-2-fluoro-L-phenylalanine; SITE 10: note = 3-(4-Pyridyl)-L-alanine; SITE 11: note = alpha-methyl-L-serine; SITE 17: note = Lysine is chemically modified through conjugation of the epsilon-amino group of the Lysine"}, "B2": {"name": "Example 467 (peptide)", "chain": "B1 chain with X10Y, I12E", "modifications": "synthetic construct; SITE 2: note = 2-Aminoisobutyric Acid; SITE 6: note = alpha-methyl-2-fluoro-L-phenylalanine; SITE 11: note = alpha-methyl-L-serine; SITE 17: note = Lysine is chemically modified through conjugation of the epsilon-amino group of the Lysine side chain with (2-[2-(2-Amino-ethoxy)-e)"}, "B3": {"name": "Example 468 (peptide)", "chain": "B1 chain with X10Y", "modifications": "synthetic construct; SITE 2: note = 2-Aminoisobutyric Acid; SITE 6: note = alpha-methyl-2-fluoro-L-phenylalanine; SITE 11: note = alpha-methyl-L-serine; SITE 17: note = Lysine is chemically modified through conjugation of the epsilon-amino group of the Lysine side chain with (2-[2-(2-Amino-ethoxy)-e)"}, "B4": {"name": "Example 465 (peptide)", "chain": "B1 chain", "modifications": "synthetic construct; SITE 2: note = 2-Aminoisobutyric Acid; SITE 6: note = alpha-methyl-2-fluoro-L-phenylalanine; SITE 10: note = 3-(3-Pyridyl)-L-alanine; SITE 11: note = alpha-methyl-L-serine; SITE 17: note = Lysine is chemically modified through conjugation of the epsilon-amino group of the Lysine"}, "B5": {"name": "Example 462 (peptide)", "chain": "YXQGTXTSDXXIXLDXKAQXXFIEXLIEGGPSSGEPPPEEG", "modifications": "synthetic construct; SITE 2: note = 2-Aminoisobutyric Acid; SITE 6: note = alpha-methyl-2-fluoro-L-phenylalanine; SITE 10: note = 3-(4-Pyridyl)-L-alanine; SITE 11: note = alpha-methyl-L-serine; SITE 13: note = alpha-methyl-leucine; SITE 16: note = L-ornithine; SITE 17: note = Lysine is chemically mo"}, "B6": {"name": "Example 450 (peptide)", "chain": "YXQGTXTSDXXIXLDXKAQXNFIEXLQEGGPSSGEPPPE", "modifications": "synthetic construct; SITE 2: note = 2-Aminoisobutyric Acid; SITE 6: note = alpha-methyl-2-fluoro-L-phenylalanine; SITE 10: note = 3-(4-Pyridyl)-L-alanine; SITE 11: note = alpha-methyl-L-serine; SITE 13: note = alpha-methyl-leucine; SITE 16: note = L-ornithine; SITE 17: note = Lysine is chemically mo"}, "B7": {"name": "Example 460 (peptide)", "chain": "B6 chain with N21X, X25Y, Q27L", "modifications": "synthetic construct; SITE 2: note = 2-Aminoisobutyric Acid; SITE 6: note = alpha-methyl-2-fluoro-L-phenylalanine; SITE 10: note = 3-(4-Pyridyl)-L-alanine; SITE 11: note = alpha-methyl-L-serine; SITE 13: note = alpha-methyl-leucine; SITE 16: note = L-ornithine; SITE 17: note = Lysine is chemically mo"}, "B8": {"name": "Example 457 (peptide)", "chain": "B6 chain with N21T, Q27I", "modifications": "synthetic construct; SITE 2: note = 2-Aminoisobutyric Acid; SITE 6: note = alpha-methyl-2-fluoro-L-phenylalanine; SITE 10: note = 3-(4-Pyridyl)-L-alanine; SITE 11: note = alpha-methyl-L-serine; SITE 13: note = alpha-methyl-leucine; SITE 16: note = L-ornithine; SITE 17: note = Lysine is chemically mo"}, "B9": {"name": "Example 453 (peptide)", "chain": "B6 chain with N21X, Q27I", "modifications": "synthetic construct; SITE 2: note = 2-Aminoisobutyric Acid; SITE 6: note = alpha-methyl-2-fluoro-L-phenylalanine; SITE 10: note = 3-(4-Pyridyl)-L-alanine; SITE 11: note = alpha-methyl-L-serine; SITE 13: note = alpha-methyl-leucine; SITE 16: note = L-ornithine; SITE 17: note = Lysine is chemically mo"}, "B10": {"name": "Example 466 (peptide)", "chain": "B6 chain with Y1H, N21A, X25Y, Q27L", "modifications": "synthetic construct; SITE 2: note = 2-Aminoisobutyric Acid; SITE 6: note = alpha-methyl-2-fluoro-L-phenylalanine; SITE 10: note = 3-(4-Pyridyl)-L-alanine; SITE 11: note = alpha-methyl-L-serine; SITE 13: note = alpha-methyl-leucine; SITE 16: note = L-ornithine; SITE 17: note = Lysine is chemically mo"}},
  "note": "Where a chain is given by its changes, count along the chain named.",
  "data": [
    {"molecular_target": "T1, human GIP receptor (human) (UniProt P48546)", "T1 sequence (looked up)": "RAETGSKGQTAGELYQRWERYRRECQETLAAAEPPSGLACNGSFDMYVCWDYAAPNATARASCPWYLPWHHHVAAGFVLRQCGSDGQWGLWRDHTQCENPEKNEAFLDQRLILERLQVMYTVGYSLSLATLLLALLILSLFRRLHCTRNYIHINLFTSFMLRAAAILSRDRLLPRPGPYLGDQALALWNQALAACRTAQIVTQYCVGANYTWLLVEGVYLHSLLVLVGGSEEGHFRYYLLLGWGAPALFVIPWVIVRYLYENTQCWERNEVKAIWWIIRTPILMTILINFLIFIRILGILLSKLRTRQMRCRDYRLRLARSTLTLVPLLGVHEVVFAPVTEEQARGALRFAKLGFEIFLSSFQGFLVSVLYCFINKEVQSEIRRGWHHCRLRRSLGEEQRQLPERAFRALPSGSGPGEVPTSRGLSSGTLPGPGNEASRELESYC", "experiment": "cell-based or functional assay", "units": {"Relative cAMP EC50, nM (0.1% casein)": "nM", "cAMP Rel EC50 (receptor-expressing HEK-293 cells, 1% HSA)": "nM"}, "values": [
      {"binder": "B1", "Relative cAMP EC50, nM (0.1% casein)": 0.072, "cAMP Rel EC50 (receptor-expressing HEK-293 cells, 1% HSA)": 19.9},
      {"binder": "B2", "Relative cAMP EC50, nM (0.1% casein)": 0.0855, "cAMP Rel EC50 (receptor-expressing HEK-293 cells, 1% HSA)": 10.7},
      {"binder": "B3", "Relative cAMP EC50, nM (0.1% casein)": 0.0222, "cAMP Rel EC50 (receptor-expressing HEK-293 cells, 1% HSA)": 4.76},
      {"binder": "B4", "Relative cAMP EC50, nM (0.1% casein)": 0.148, "cAMP Rel EC50 (receptor-expressing HEK-293 cells, 1% HSA)": 44.6},
      {"binder": "B5", "Relative cAMP EC50, nM (0.1% casein)": 0.0148, "cAMP Rel EC50 (receptor-expressing HEK-293 cells, 1% HSA)": 1.62},
      {"binder": "B6", "Relative cAMP EC50, nM (0.1% casein)": 0.0448, "cAMP Rel EC50 (receptor-expressing HEK-293 cells, 1% HSA)": 3.75},
      {"binder": "B7", "Relative cAMP EC50, nM (0.1% casein)": 0.0624, "cAMP Rel EC50 (receptor-expressing HEK-293 cells, 1% HSA)": 8.93},
      {"binder": "B8", "Relative cAMP EC50, nM (0.1% casein)": 0.00918, "cAMP Rel EC50 (receptor-expressing HEK-293 cells, 1% HSA)": 0.881},
      {"binder": "B9", "Relative cAMP EC50, nM (0.1% casein)": 0.0184, "cAMP Rel EC50 (receptor-expressing HEK-293 cells, 1% HSA)": 1.95},
      {"binder": "B10", "Relative cAMP EC50, nM (0.1% casein)": 0.0466, "cAMP Rel EC50 (receptor-expressing HEK-293 cells, 1% HSA)": 5.65}
    ]},
    {"molecular_target": "hGLP-1R (Homo sapiens, UniProt P43220)", "sequence (P43220 24-463)": "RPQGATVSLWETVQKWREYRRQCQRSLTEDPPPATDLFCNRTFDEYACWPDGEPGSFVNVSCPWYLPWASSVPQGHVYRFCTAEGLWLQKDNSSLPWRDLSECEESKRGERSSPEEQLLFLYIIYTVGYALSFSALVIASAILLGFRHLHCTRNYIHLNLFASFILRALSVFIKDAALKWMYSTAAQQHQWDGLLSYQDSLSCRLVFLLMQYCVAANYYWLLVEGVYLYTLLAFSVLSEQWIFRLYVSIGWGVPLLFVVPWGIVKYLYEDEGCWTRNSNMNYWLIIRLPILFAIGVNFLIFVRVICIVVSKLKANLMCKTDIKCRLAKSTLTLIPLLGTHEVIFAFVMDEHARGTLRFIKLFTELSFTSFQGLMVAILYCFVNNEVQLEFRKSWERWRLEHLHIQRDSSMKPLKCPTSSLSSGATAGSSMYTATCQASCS", "experiment": "cell-based or functional assay", "units": {"Relative cAMP EC50, nM (0.1% casein)": "nM", "cAMP Rel EC50 (receptor-expressing HEK-293 cells, 1% HSA)": "nM"}, "values": [
      {"binder": "B1", "Relative cAMP EC50, nM (0.1% casein)": 0.466, "cAMP Rel EC50 (receptor-expressing HEK-293 cells, 1% HSA)": 45.5},
      {"binder": "B2", "Relative cAMP EC50, nM (0.1% casein)": 0.358, "cAMP Rel EC50 (receptor-expressing HEK-293 cells, 1% HSA)": 36.4},
      {"binder": "B3", "Relative cAMP EC50, nM (0.1% casein)": 0.466, "cAMP Rel EC50 (receptor-expressing HEK-293 cells, 1% HSA)": 30.7},
      {"binder": "B4", "Relative cAMP EC50, nM (0.1% casein)": 0.575, "cAMP Rel EC50 (receptor-expressing HEK-293 cells, 1% HSA)": 56.3},
      {"binder": "B5", "Relative cAMP EC50, nM (0.1% casein)": 0.204, "cAMP Rel EC50 (receptor-expressing HEK-293 cells, 1% HSA)": 12.9},
      {"binder": "B6", "Relative cAMP EC50, nM (0.1% casein)": 0.43, "cAMP Rel EC50 (receptor-expressing HEK-293 cells, 1% HSA)": 18.4},
      {"binder": "B7", "Relative cAMP EC50, nM (0.1% casein)": 0.636, "cAMP Rel EC50 (receptor-expressing HEK-293 cells, 1% HSA)": 31.1},
      {"binder": "B8", "Relative cAMP EC50, nM (0.1% casein)": 0.226, "cAMP Rel EC50 (receptor-expressing HEK-293 cells, 1% HSA)": 11.7},
      {"binder": "B9", "Relative cAMP EC50, nM (0.1% casein)": 0.374, "cAMP Rel EC50 (receptor-expressing HEK-293 cells, 1% HSA)": 20.6},
      {"binder": "B10", "Relative cAMP EC50, nM (0.1% casein)": 0.207, "cAMP Rel EC50 (receptor-expressing HEK-293 cells, 1% HSA)": 13.3}
    ]},
    {"molecular_target": "human glucagon receptor (human) (UniProt P47871)", "sequence (P47871 26-477)": "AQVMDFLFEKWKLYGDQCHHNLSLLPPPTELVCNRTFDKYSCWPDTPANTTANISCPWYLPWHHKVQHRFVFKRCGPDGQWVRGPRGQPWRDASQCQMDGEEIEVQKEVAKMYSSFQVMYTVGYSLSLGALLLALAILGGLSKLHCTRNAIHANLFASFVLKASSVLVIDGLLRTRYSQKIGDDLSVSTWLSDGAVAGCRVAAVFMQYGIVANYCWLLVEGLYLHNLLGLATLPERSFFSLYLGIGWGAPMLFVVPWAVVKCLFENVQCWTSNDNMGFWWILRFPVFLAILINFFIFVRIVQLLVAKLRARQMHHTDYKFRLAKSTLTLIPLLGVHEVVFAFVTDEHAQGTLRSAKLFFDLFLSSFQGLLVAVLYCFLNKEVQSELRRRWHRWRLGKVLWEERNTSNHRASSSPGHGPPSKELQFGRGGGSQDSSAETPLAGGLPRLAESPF", "experiment": "cell-based or functional assay", "units": {"Relative cAMP EC50, nM (0.1% casein)": "nM", "cAMP Rel EC50 (receptor-expressing HEK-293 cells, 1% HSA)": "nM"}, "values": [
      {"binder": "B1", "Relative cAMP EC50, nM (0.1% casein)": 1.25, "cAMP Rel EC50 (receptor-expressing HEK-293 cells, 1% HSA)": 194},
      {"binder": "B2", "Relative cAMP EC50, nM (0.1% casein)": 9.34, "cAMP Rel EC50 (receptor-expressing HEK-293 cells, 1% HSA)": 850},
      {"binder": "B3", "Relative cAMP EC50, nM (0.1% casein)": 1.95, "cAMP Rel EC50 (receptor-expressing HEK-293 cells, 1% HSA)": 195},
      {"binder": "B4", "Relative cAMP EC50, nM (0.1% casein)": 1.5, "cAMP Rel EC50 (receptor-expressing HEK-293 cells, 1% HSA)": 233},
      {"binder": "B5", "Relative cAMP EC50, nM (0.1% casein)": 1.69, "cAMP Rel EC50 (receptor-expressing HEK-293 cells, 1% HSA)": 183},
      {"binder": "B6", "Relative cAMP EC50, nM (0.1% casein)": 4.84, "cAMP Rel EC50 (receptor-expressing HEK-293 cells, 1% HSA)": 553},
      {"binder": "B7", "Relative cAMP EC50, nM (0.1% casein)": 1.89, "cAMP Rel EC50 (receptor-expressing HEK-293 cells, 1% HSA)": 142},
      {"binder": "B8", "Relative cAMP EC50, nM (0.1% casein)": 2.86, "cAMP Rel EC50 (receptor-expressing HEK-293 cells, 1% HSA)": 333},
      {"binder": "B9", "Relative cAMP EC50, nM (0.1% casein)": 7.37, "cAMP Rel EC50 (receptor-expressing HEK-293 cells, 1% HSA)": 261},
      {"binder": "B10", "Relative cAMP EC50, nM (0.1% casein)": 5.84, "cAMP Rel EC50 (receptor-expressing HEK-293 cells, 1% HSA)": 348}
    ]}
  ]
}
